Consider 33 sequences from the supplement of paper PMC9170038.

The data set relates to MS2 coat protein. Kind of data set: apparent KD of MS2 coat protein; designed switch direction (-1 OFF switch, 1 ON switch): -1; higher = weaker reporter binding. An outline of the steps:
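RNA switches sharing common flanks were transcribed by stalled E. coli RNA polymerase on Illumina chips. A doubling series of SNAP-549-labelled MS2 coat protein, from 0.7 or 1.5 nM to 3 µM, was applied in Tris-HCl pH 7.5 buffer with KCl, MgCl2, BSA, DTT, tRNA and Tween-20. Each step lasted 0.8–1.5 h at the bottom of the series and 10–20 min at the top. Normalised cluster fluorescence was curve-fitted, giving apparent KD as the per-design median over clusters.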

The mark [1] stands for this setting: input ligand: microRNA oligo, concentration not stated.
Where [2] appears, read: Eterna round: R95, input ligand: FMN 200 uM.
[3] abbreviates: Eterna round: R95, input ligand: microRNA oligo, concentration not stated.
Setting [4] is: Eterna round: R95, input ligand: none.

Regarding “CUGCUCCGUGUAGGAUAUGCGUACAACCAAUAUGCAGAAGGACAUGAGGAUCACCCAUGUAUGUUAUUAUCACGUGAAGCGUCC [Design 21] (Eterna round: R96, puzzle: Exclusion NG 1)”, the “apparent KD of MS2 coat protein” value under setting [1] came out at 0.016 µM. On the same count and under the same terms, as for “CUGCUGGAGCUUCGCUUUGGUCGUACAUGAGGAUCACCCAUGUAGGAUAUGGUAAAAUUCGCCUGCUAGAAGGAUAGAGUGGUC [salish99_ExNG3_r04_619] (Eterna round: R96, puzzle: Exclusion NG 3)”, the figure is 0.0801 µM. For “CUGGAUAGAGGAUAUUGUACUGCUGACAUGAGGAUCACCCAUGUAUGUUAACUCGGCCGUCGAGAAGGCUAACAAA [BotMod 14 - Jieux - Exclusion 5] (Eterna round: R97, puzzle: Exclusion 5)”, the “apparent KD of MS2 coat protein” value came to 0.0163 µM (input ligand: FMN 200 uM) and 0.0334 µM (input ligand: none).

Regarding “CUGGUCCGAGGAUAUAUGAUGUGAAACAUGAGGAUCACCCAUGUAAUAUUAUGGAUGGAAAUAGAAGGCGGACUAG [Mat - Exclusion 5 - JL mod - D36] (puzzle: Exclusion 5)”, the “apparent KD of MS2 coat protein” value reads like this: under setting [2], 0.0635 µM; under setting [3], 0.0497 µM; under setting [4], 0.0652 µM. With “CUGGUCCGAGGAUAUAUGAUGUGAAACAUGAGGAUCACCCAUGUAAUAUUAUGGAUGUAAAUAGAAGGCGGACUAG [JL-ex5-3.08] (puzzle: Exclusion 5)”, the “apparent KD of MS2 coat protein” value came to 0.0378 µM under setting [2], 0.0339 µM under setting [3] and 0.0742 µM under setting [4]. As for “CUGGUCCGAGGAUAUAUUAUGUGAAACAUGAGGAUCACCCAUGUUAUAUAAUGGAUGUAAAUAGAAGGCGGACUAG [Mat - Exclusion 5 - JL mod - D62] (puzzle: Exclusion 5)”, the “apparent KD of MS2 coat protein” value under setting [2] amounted to 0.0277 µM, the “apparent KD of MS2 coat protein” value under setting [3] worked out at 0.0255 µM and the “apparent KD of MS2 coat protein” value under setting [4] came out at 0.0282 µM. “CUGGUCCGAGGAUAUAUUAUGUGAUACAUGAGGAUCACCCAUGUUAUAUGAUGGAUAUUAAUAGAAGGCGGACUAG [Mat - Exclusion 5 - JL mod - D73] (puzzle: Exclusion 5)”: the “apparent KD of MS2 coat protein” value was 0.0855 µM under setting [2], 0.0715 µM under setting [3] and 0.0839 µM under setting [4]. Turning to “CUGGUCCGAGGAUAUUUUAUGUGAUACAUGAGGAUCACCCAUGUUAUAUGAUGGAUGUUAAAAGAAGGCGGACUAG [Mat - Exclusion 5 - JL mod - D80] (puzzle: Exclusion 5)”, the “apparent KD of MS2 coat protein” value turned out to be 0.077 µM under setting [2], 0.102 µM under setting [3] and 0.114 µM under setting [4].

Turning to “CUGGUGUGAGGAUAUCAAAGACCUCGGGAUAGUAGCGAGGAUGAGAAGGCACAUGAGGAUCACCCAUGUAACAA [Edmaer] (puzzle: Exclusion 4)”, the “apparent KD of MS2 coat protein” value under setting [3] was 0.0212 µM. As for “CUGGUUGUCGAGGAUAUGCACCGGCUCGCUGACGCAGAAGGCGACACAUGAGGAUCACCCAUGUCGGUUCGCGU [salish99_ex6_r004_438] (Eterna round: R97, puzzle: Exclusion 6)”, the “apparent KD of MS2 coat protein” value was determined as 0.029 µM (input ligand: FMN 200 uM) and 0.0191 µM (input ligand: none).

“CUGUACAUAGGAUAUAGUUGUUUUUACAUGAGGAUCACCCAUGUUACUCCUCUCUCUCUUCUAGAAGGAUGUUUUU [JR_E5_Sub007] (Eterna round: R96, puzzle: Exclusion 5)”: the “apparent KD of MS2 coat protein” value (input ligand: FMN 200 uM) was determined as 0.0707 µM, the “apparent KD of MS2 coat protein” value under setting [1] was determined as 0.0507 µM and the “apparent KD of MS2 coat protein” value (input ligand: none) worked out at 0.067 µM. In the case of “CUGUACAUAGGAUAUAGUUGUUUUUACAUGAGGAUCACCCAUGUUACUCCUCUCUCUCUUCUAGAAGGAUGUUUUU [JR_E5_Sub007] (puzzle: Exclusion 5)”, under setting [3], the “apparent KD of MS2 coat protein” value stood at 0.0781 µM. Consider “CUGUACUGAGGAUAUACAUGAGGAUCACCCAUGUUCCAAGGCUAGGAAACUAGCAAAGGUAGAAGGCAGUACAG [Mat - Exclusion 3 - Eli Mod - D67] (Eterna round: R97, puzzle: Exclusion 3)”, for which the “apparent KD of MS2 coat protein” value (input ligand: FMN 200 uM) was 0.215 µM and the “apparent KD of MS2 coat protein” value (input ligand: none) was 0.0178 µM.

With “CUGUCCCAAGGAUAUACAUCAGUCCCAGGGUGCCGCAUAAGACAUGAGGAUCACCCAUGUAGAAGGUGGAGACC [Esaranre] (puzzle: Exclusion 2)”, the “apparent KD of MS2 coat protein” value under setting [3] amounted to 0.0821 µM. On to “CUGUGCAUAGGAUAUGAAAGAAGAAACAUGAGGAUCACCCAUGUAGCCUCAAAUCUUAUGUCAGAAGGAUGCGUUA [Default title] (Eterna round: R97, puzzle: Exclusion 5)”, for which the “apparent KD of MS2 coat protein” value runs as follows: (input ligand: FMN 200 uM) 0.0159 µM; (input ligand: none) 0.0136 µM. On the same counts, the results for “CUGUUUGUAGGAUAUACAUGCGGAACCCUCCUCGUGUGAAGACAUGAGGAUCACCCAUGUAGAAGGACGAGGAG [Angeer] (Eterna round: R97, puzzle: Exclusion 2)” are 0.016 µM and 0.0163 µM.

Consider “CUGUUUUUCGCAGGAUAUGCUCCUCCUUUAUUAGCAGAAGGGCGUUAAACAUGAGGAUCACCCAUGUAUGGUAAUGACAUUUUC [JR_ExcNG1_Sub062] (Eterna round: R96, puzzle: Exclusion NG 1)”, for which, under setting [1], the “apparent KD of MS2 coat protein” value was 0.0298 µM. In the case of “CUGUUUUUCGCAGGAUAUGCUCCUCCUUUAUUUGCAGAAGGGCGUUAAACAUGAGGAUCACCCAUGUAUGGUAAUGACUUUUUC [JR_ExcNG1_Sub064] (Eterna round: R96, puzzle: Exclusion NG 1)”, the “apparent KD of MS2 coat protein” value under setting [1] was 0.0169 µM. “CUUAAAAGGAAGGAUAUGCUAGACGAAAGUCUAGCAGAAGGUCCUACAUGAGGAUCACCCAUGUGUCCUGUAAG [Mat - Exclusion 6 - Eli Mod - D41] (Eterna round: R97, puzzle: Exclusion 6)”: the “apparent KD of MS2 coat protein” value is 0.0956 µM (input ligand: FMN 200 uM) and 0.0539 µM (input ligand: none). Take “CUUAAACAUGAGGAUCACCCAUGUGAGGAUAUGAUGCGAAUAAAGAAAGAAGAAAGCAUCAGAAGGCACAUAUG (Eterna round: R96, puzzle: Exclusion 1)”: the “apparent KD of MS2 coat protein” value under setting [1] was 0.0659 µM. Consider “CUUAAGGCAGGAUAUGCUUUUUGUGACAUGAGGAUCACCCAUGUGAUGCAGUUUGGGUGUGCAGAAGGGCCUGAGU [JR_E5_Sub033] (puzzle: Exclusion 5)”, for which the “apparent KD of MS2 coat protein” value under setting [3] turned out to be 0.378 µM. Consider “CUUACACAUGAGGAUCACCCAUGUGAGGAUAUGCGUACGUUGUCCGUAGGCGACGUGCGCAGAAGGCGCUUGGU [JL-ex1-3.19 Eli mod] (puzzle: Exclusion 1)”, for which the “apparent KD of MS2 coat protein” value under setting [3] was 0.0553 µM. As to “CUUAGACAUGAGGAUCACCCAUGUGAGGAUAUGAAAUUAAUUAAGUAUGAAGUAUGAAUCAGAAGGCACAUAUG [Mat - Mod of Hyphema D34] (puzzle: Exclusion 1)”, the “apparent KD of MS2 coat protein” value by setting is: under setting [2], 0.0617 µM; under setting [3], 0.0921 µM; under setting [4], 0.0816 µM. On the same counts, the results for “CUUAGCCUAAAAUCACGCAAGCUUUUUACUUGUCUUAAGACAUGAGGAUCACCCAUGUCCGGGCUGAACUUAUGGAA [Zaortequ] (puzzle: Sensor v3, turn-off variant 2)” are 0.0212 µM, 0.269 µM and 0.0214 µM. With “CUUAUGUGAGGAUAUCAGUAGUGAUACGAUAGUAUUACUGCUGAGAAGGCACAUGAGGAUCACCCAUGUUCCUC [Exclusion 4 - Mod Omei Ex4 344 mod 4 v.2] (puzzle: Exclusion 4)”, the “apparent KD of MS2 coat protein” value under setting [3] was 0.0916 µM. For “CUUAUGUGAGGAUAUGCCUGGCCGUGAGGCCAAAUUGAUUAGCAGAAGGCACAUGAGGAUCACCCAUGUGCGGG [jl-ex4-4.67 ViennaUCT mod] (Eterna round: R97, puzzle: Exclusion 4)”, the “apparent KD of MS2 coat protein” value runs as follows: (input ligand: FMN 200 uM) 0.34 µM; (input ligand: none) 0.479 µM. Turning to “CUUCAAGCACCAGAGCUCACACUUAUACCUGCUCUGGUGACAUGAGGAUCACCCAUGUUUUUUGCCCGUCUUAUCUU [Sensor v3, turn-off variant 2 (MOD of Leso v.2)] (Eterna round: R96, puzzle: Sensor v3, turn-off variant 2)”, the “apparent KD of MS2 coat protein” value runs as follows: (input ligand: FMN 200 uM) 0.178 µM; under setting [1], 0.101 µM; (input ligand: none) 0.25 µM.

As to “CUUCAAGCACCAGAGCUCACACUUAUACCUGCUCUGGUGACAUGAGGAUCACCCAUGUUUUUUGCCCGUCUUAUCUU [Sensor v3, turn-off variant 2 (MOD of Leso v.2)] (puzzle: Sensor v3, turn-off variant 2)”, the “apparent KD of MS2 coat protein” value by setting is: under setting [2], 0.0928 µM; under setting [3], 0.276 µM; under setting [4], 0.115 µM.

“CUUCACCCACUAGAGCUCACCCACAAACCUACUCUAGUGACAUGAGGAUCACCCAUGUUUUUUGCCCGUCUUAUCUU [Qugeenerce] (puzzle: Sensor v3, turn-off variant 2)”: the “apparent KD of MS2 coat protein” value under setting [2] was determined as 0.0402 µM, the “apparent KD of MS2 coat protein” value under setting [3] came out at 0.184 µM and the “apparent KD of MS2 coat protein” value under setting [4] was 0.0414 µM. In the case of “CUUCGACAUGAGGAUCACCCAUGUCAGGAUAUUGUGUAUCGGGUGUUGGACGGAUAGGCAAGAAGGGAUGUGUG [LRO-Excl1-05] (puzzle: Exclusion 1)”, the “apparent KD of MS2 coat protein” value under setting [3] turned out to be 0.0278 µM. Turning to “CUUCUCAGAGUCAGGAUAUAGUCGAAAGGGCUAGACUAGAAGGGACAUGAGGAUCACCCAUGUAAAAUAUCAAA [Razalequ] (puzzle: Brourd's mod of Exclusion 4)”, the “apparent KD of MS2 coat protein” value under setting [3] was 0.0204 µM. With “CUUCUCGUUGUGAGGAUAUCGUUUUCGUCUCGGAUCGAGAAGGCACAUGAGGAUCACCCAUGUUUGUUGUGGUU [JR_BMOE4_Sub090] (puzzle: Brourd's mod of Exclusion 4)”, the “apparent KD of MS2 coat protein” value under setting [3] was determined as 0.0879 µM. With “CUUGACUGAGGAUAUUGUGCUGCUGACAUGAGGAUCACCCAUGUAUGUUAACUCGGCCGUCGAGAAGGCAGAAAGG [BotMod 19 - Jieux - Exclusion 5] (Eterna round: R97, puzzle: Exclusion 5)”, the “apparent KD of MS2 coat protein” value by setting is: (input ligand: FMN 200 uM) 0.0142 µM; (input ligand: none) 0.0408 µM.
